Laboratory results taken from article doi:10.1101/839423, “Mechanism of the secretion of the lanthipeptide nisin” (bioRxiv, 2019).

T1: NisB, nisin dehydratase (Lactococcus lactis, UniProt P20103 1-993)
T1 construct: Nisin biosynthesis protein NisB (dehydratase), Lactococcus lactis; printed as about 117 kDa; source: expressed and purified as described previously (Mavaro 2011; Abts 2013; Reiners 2017)
T1 sequence (looked up): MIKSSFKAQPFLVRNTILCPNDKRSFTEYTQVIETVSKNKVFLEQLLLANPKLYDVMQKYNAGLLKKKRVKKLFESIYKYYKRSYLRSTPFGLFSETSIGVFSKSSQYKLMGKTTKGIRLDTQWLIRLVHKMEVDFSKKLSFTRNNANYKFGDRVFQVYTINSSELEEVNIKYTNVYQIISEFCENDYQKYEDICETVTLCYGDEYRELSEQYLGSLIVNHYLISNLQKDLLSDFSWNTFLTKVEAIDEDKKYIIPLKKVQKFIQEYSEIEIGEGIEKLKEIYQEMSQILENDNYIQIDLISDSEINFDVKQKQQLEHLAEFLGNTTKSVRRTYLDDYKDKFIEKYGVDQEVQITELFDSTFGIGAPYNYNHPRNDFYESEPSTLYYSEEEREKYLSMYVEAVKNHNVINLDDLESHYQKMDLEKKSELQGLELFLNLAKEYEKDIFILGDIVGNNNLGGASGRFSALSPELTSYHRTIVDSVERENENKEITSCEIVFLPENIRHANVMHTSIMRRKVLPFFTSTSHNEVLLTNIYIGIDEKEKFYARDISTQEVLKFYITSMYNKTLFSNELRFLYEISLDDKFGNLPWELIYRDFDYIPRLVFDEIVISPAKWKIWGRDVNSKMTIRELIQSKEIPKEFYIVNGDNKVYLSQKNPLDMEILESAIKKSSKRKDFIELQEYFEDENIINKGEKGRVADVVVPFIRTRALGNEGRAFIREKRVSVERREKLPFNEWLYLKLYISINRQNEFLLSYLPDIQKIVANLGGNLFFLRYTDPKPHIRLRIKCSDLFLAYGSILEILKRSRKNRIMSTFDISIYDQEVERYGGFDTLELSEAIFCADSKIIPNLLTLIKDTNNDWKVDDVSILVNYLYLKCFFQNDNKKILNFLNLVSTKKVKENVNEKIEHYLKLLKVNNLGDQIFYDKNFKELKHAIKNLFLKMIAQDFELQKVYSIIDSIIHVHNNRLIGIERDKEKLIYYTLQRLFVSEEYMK

B1: 10HNisT, deca-histidine tagged ABC transporter NisT (natural protein, Lactococcus lactis, UniProt Q03203 1-600, looked up)
chain: MDEVKEFTSKQFFYTLLTLPSTLKLIFQLEKRYAIYLIVLNAITAFVPLASLFIYQDLINSVLGSGRHLINIIIIYFIVQVITTVLGQLESYVSGKFDMRLSYSINMRLMRTTSSLELSDYEQADMYNIIEKVTQDSTYKPFQLFNAIIVELSSFISLLSSLFFIGTWNIGVAILLLIVPVLSLVLFLRVGQLEFLIQWQRASSERETWYIVYLLTHDFSFKEIKLNNISNYFIHKFGKLKKGFINQDLAIARKKTYFNIFLDFILNLINILTIFAMILSVRAGKLLIGNLVSLIQAISKINTYSQTMIQNIYIIYNTSLFMEQLFEFLKRESVVHKKIEDTEICNQHIGTVKVINLSYVYPNSNAFALKNINLSFEKGELTAIVGKNGSGKSTLVKIISGLYQPTMGIIQYDKMRSSLMPEEFYQKNISVLFQDFVKYELTIRENIGLSDLSSQWEDEKIIKVLDNLGLDFLKTNNQYVLDTQLGNWFQEGHQLSGGQWQKIALARTFFKKASIYILDEPSAALDPVAEKEIFDYFVALSENNISIFISHSLNAARKANKIVVMKDGQVEDVGSHDVLLRRCQYYQELYYSEQYEDNDE
notes: the nisT gene was amplified from genomic DNA of L. lactis NZ97000; 10HNisT is printed as 72.5 kDa (72.6 kDa in the methods), NisT as about 69 kDa; In the pull-down the detergent was CYMAL5; also called WT; source: L. lactis NZ9000 (pNZ-SV10HnisT), membranes solubilised with Fos-choline-16, purified (IMAC, SEC)

Key:
[1] = molecular target: B1; test: pull-down; as a1, with NisB and NisC together (1:1), pre-incubated 15 min on ice with mNisA (20x molar excess to NisT); conditions: both partners purified
[2] = molecular target: T1, NisB, nisin dehydratase; test: pull-down; about 15 ug 10HNisT immobilised on Ni-NTA magnetic beads; 10 uM NisB, NisC or both, no substrate; 1 h at 30 C; 25 mM Tris-HCl pH 7.5, 50 mM KCl, 0.4% CYMAL5, 400 mM glutamate, 5 mM MgATP; six washes, elution with 50 mM EDTA, Western blot; conditions: both partners purified

| binding result [1] | binding result [2] | Binder |
| --- | --- | --- |
| binds | – | NisC, nisin cyclase (enzyme, Lactococcus lactis, UniProt Q03202 1-418, looked up, Nisin biosynthesis protein NisC (cyclase), Lactococcus lactis; printed as about 48 kDa; source: expressed and purified as described previously (Mavaro 2011; Abts 2013; Reiners 2017)) MRIMMNKKNIKRNVEKIIAQWDERTRKNKENFDFGELTLSTGLPGIILMLAELKNKDNSKIYQKKIDNYIEYIVSKLSTYGLLTGSLYSGAAGIALSILHLREDDEKYKNLLDSLNRYIEYFVREKIEGFNLENITPPDYDVIEGLSGILSYLLLINDEQYDDLKILIINFLSNLTKENNGLISLYIKSENQMSQSESEMYPLGCLNMGLAHGLAGVGCILAYAHIKGYSNEASLSALQKIIFIYEKFELERKKQFLWKDGLVADELKKEKVIREASFIRDAWCYGGPGISLLYLYGGLALDNDYFVDKAEKILESAMQRKLGIDSYMICHGYSGLIEICSLFKRLLNTKKFDSYMEEFNVNSEQILEEYGDESGTGFLEGISGCILVLSKFEYSINFTYWRQALLLFDDFLKGGKRK |
| – | binds | B1 |
